We go through five molecules from patent US20150344570A1 (published 2015).

First the molecules themselves.
B1: GpH7-A5/GpH7-B78/GpL16-k0 (antibody, human IgG1, kappa)
heavy 1: not shown
heavy 2: QVQLVQSGAEVKKPGASVTVSCKASGYTFTDYEMHWIRQPPGEGLEWIGAIDPKTGDTAYSESFQDRVTLTADKSTSTAYMELSSLTSEDTAVYYCTRFYSYTYWGQGTLVTVSSASTKGPSVFPLAPSSKSTSGGTAALGCLVKDYFPEPVTVSWNSGALTSGVHTFPAVLQSSGLYSLSSVVTVPSSSLGTQTYICNVNHKPSNTKVDKKVEPKSCDKTHTCPPCPAPELLGGPDVFLFPPKPKDTLMISRTPEVTCVVVDVSHEDPEVKFNWYVDGVEVHNAKTKPREEQYNSTYRVVSVLTVLHQDWLNGKEYKCKVSNKALPLPEEKTISKAKGQPREPQVYTLPPSRDELTKNQVSLTCLVKGFYPSDIAVEWESNGQPENNYKTTPPVLDSDGSFFLYSKLTVDKSRWQQGNVFSCSVMHEALHNHYTQESLSLSP
light: DIVMTQSPLSLPVTPGEPASISCQASESLVHSNRNTYLHWYLQKPGQSPQLLIYKVSNRFSGVPDRFSGSGSGTDFTLKISRVEAEDVGVYYCSQNTHVPPTFGQGTKVEIERTVAAPSVFIFPPSDEQLKSGTASVVCLLNNFYPREAKVQWKVDNALQSGNSQESVTEQDSKDSTYSLSSTLTLSKADYEKHKVYACEVTHQGLSSPVTKSFNRGEC
notes: Heterodimerized anti-glypican-3 IgG1; also called A5/B78
B2: GpH7-TA7/GpH7-TA45/GpL16-k0 (antibody, human IgG1, kappa)
heavy 1: QVQLVQSGAEVKKPGASVTVSCKASGYTFTDYEMHWIRQPPGEGLEWIGAIDPKTGDTAYSESFQDRVTLTADKSTSTAYMELSSLTSEDTAVYYCTRFYSYTYWGQGTLVTVSSASTKGPSVFPLAPSSKSTSGGTAALGCLVKDYFPEPVTVSWNSGALTSGVHTFPAVLQSSGLYSLSSVVTVPSSSLGTQTYICNVNHKPSNTKVDKKVEPKSCDKTHTCPPCPAPEYLWGPSVFLFPPKPKDTLMISRTPEVTCVVVDVSHEDPEVKFNWYVDGVEVHNAKTKPREEQYNATYRVVSVLTVLHQDWLNGKEYKCKVSNKALPAPIEKTISKAKGQPREPQVYTLPPSRKELTKNQVSLTCLVKGFYPSDIAVEWESNGQPENNYKTTPPVLDSDGSFFLYSKLTVDKSRWQQGNVFSCSVMHEALHNRYTQKSLSLSP
heavy 2: QVQLVQSGAEVKKPGASVTVSCKASGYTFTDYEMHWIRQPPGEGLEWIGAIDPKTGDTAYSESFQDRVTLTADKSTSTAYMELSSLTSEDTAVYYCTRFYSYTYWGQGTLVTVSSASTKGPSVFPLAPSSKSTSGGTAALGCLVKDYFPEPVTVSWNSGALTSGVHTFPAVLQSSGLYSLSSVVTVPSSSLGTQTYICNVNHKPSNTKVDKKVEPKSCDKTHTCPPCPAPEYLWGPSVFLFPPKPKDTLMISRTPEVTCVVVDVSHEDPEVKFNWYVDGVEVHNAKTKPREEQYNATYRVVSVLTVLHQDWLNGKEYKCKVSNKALPAPIEKTISKAKGQPREPQVYTLPPSRDELTKNQVSLTCLVKGFYPSDIAVEWESNGQPENNYKTTPPVLDSDGSFFLYSKLTVDKSRWQQGNVFSCSVMHEALHNHYTQESLSLSP
light: DIVMTQSPLSLPVTPGEPASISCQASESLVHSNRNTYLHWYLQKPGQSPQLLIYKVSNRFSGVPDRFSGSGSGTDFTLKISRVEAEDVGVYYCSQNTHVPPTFGQGTKVEIERTVAAPSVFIFPPSDEQLKSGTASVVCLLNNFYPREAKVQWKVDNALQSGNSQESVTEQDSKDSTYSLSSTLTLSKADYEKHKVYACEVTHQGLSSPVTKSFNRGEC
notes: Anti-glypican-3 IgG1; also called TA7/TA45
B3: GpH7-TA7/GpH7-B78/GpL16-k0 (antibody, human IgG1, kappa)
heavy 1: QVQLVQSGAEVKKPGASVTVSCKASGYTFTDYEMHWIRQPPGEGLEWIGAIDPKTGDTAYSESFQDRVTLTADKSTSTAYMELSSLTSEDTAVYYCTRFYSYTYWGQGTLVTVSSASTKGPSVFPLAPSSKSTSGGTAALGCLVKDYFPEPVTVSWNSGALTSGVHTFPAVLQSSGLYSLSSVVTVPSSSLGTQTYICNVNHKPSNTKVDKKVEPKSCDKTHTCPPCPAPEYLWGPSVFLFPPKPKDTLMISRTPEVTCVVVDVSHEDPEVKFNWYVDGVEVHNAKTKPREEQYNATYRVVSVLTVLHQDWLNGKEYKCKVSNKALPAPIEKTISKAKGQPREPQVYTLPPSRKELTKNQVSLTCLVKGFYPSDIAVEWESNGQPENNYKTTPPVLDSDGSFFLYSKLTVDKSRWQQGNVFSCSVMHEALHNRYTQKSLSLSP
heavy 2: QVQLVQSGAEVKKPGASVTVSCKASGYTFTDYEMHWIRQPPGEGLEWIGAIDPKTGDTAYSESFQDRVTLTADKSTSTAYMELSSLTSEDTAVYYCTRFYSYTYWGQGTLVTVSSASTKGPSVFPLAPSSKSTSGGTAALGCLVKDYFPEPVTVSWNSGALTSGVHTFPAVLQSSGLYSLSSVVTVPSSSLGTQTYICNVNHKPSNTKVDKKVEPKSCDKTHTCPPCPAPELLGGPDVFLFPPKPKDTLMISRTPEVTCVVVDVSHEDPEVKFNWYVDGVEVHNAKTKPREEQYNSTYRVVSVLTVLHQDWLNGKEYKCKVSNKALPLPEEKTISKAKGQPREPQVYTLPPSRDELTKNQVSLTCLVKGFYPSDIAVEWESNGQPENNYKTTPPVLDSDGSFFLYSKLTVDKSRWQQGNVFSCSVMHEALHNHYTQESLSLSP
light: DIVMTQSPLSLPVTPGEPASISCQASESLVHSNRNTYLHWYLQKPGQSPQLLIYKVSNRFSGVPDRFSGSGSGTDFTLKISRVEAEDVGVYYCSQNTHVPPTFGQGTKVEIERTVAAPSVFIFPPSDEQLKSGTASVVCLLNNFYPREAKVQWKVDNALQSGNSQESVTEQDSKDSTYSLSSTLTLSKADYEKHKVYACEVTHQGLSSPVTKSFNRGEC
notes: Heterodimerized anti-glypican-3 IgG1; also called TA7/B78
B4: GpH7-TA7/GpH7-B3/GpL16-k0 (antibody, human IgG1, kappa)
heavy 1: QVQLVQSGAEVKKPGASVTVSCKASGYTFTDYEMHWIRQPPGEGLEWIGAIDPKTGDTAYSESFQDRVTLTADKSTSTAYMELSSLTSEDTAVYYCTRFYSYTYWGQGTLVTVSSASTKGPSVFPLAPSSKSTSGGTAALGCLVKDYFPEPVTVSWNSGALTSGVHTFPAVLQSSGLYSLSSVVTVPSSSLGTQTYICNVNHKPSNTKVDKKVEPKSCDKTHTCPPCPAPEYLWGPSVFLFPPKPKDTLMISRTPEVTCVVVDVSHEDPEVKFNWYVDGVEVHNAKTKPREEQYNATYRVVSVLTVLHQDWLNGKEYKCKVSNKALPAPIEKTISKAKGQPREPQVYTLPPSRKELTKNQVSLTCLVKGFYPSDIAVEWESNGQPENNYKTTPPVLDSDGSFFLYSKLTVDKSRWQQGNVFSCSVMHEALHNRYTQKSLSLSP
heavy 2: not shown
light: DIVMTQSPLSLPVTPGEPASISCQASESLVHSNRNTYLHWYLQKPGQSPQLLIYKVSNRFSGVPDRFSGSGSGTDFTLKISRVEAEDVGVYYCSQNTHVPPTFGQGTKVEIERTVAAPSVFIFPPSDEQLKSGTASVVCLLNNFYPREAKVQWKVDNALQSGNSQESVTEQDSKDSTYSLSSTLTLSKADYEKHKVYACEVTHQGLSSPVTKSFNRGEC
notes: Heterodimerized anti-glypican-3 IgG1; also called TA7/B3
B5: GpH7-A57/GpH7-B78/GpL16-k0 (antibody, human IgG1, kappa)
heavy 1: QVQLVQSGAEVKKPGASVTVSCKASGYTFTDYEMHWIRQPPGEGLEWIGAIDPKTGDTAYSESFQDRVTLTADKSTSTAYMELSSLTSEDTAVYYCTRFYSYTYWGQGTLVTVSSASTKGPSVFPLAPSSKSTSGGTAALGCLVKDYFPEPVTVSWNSGALTSGVHTFPAVLQSSGLYSLSSVVTVPSSSLGTQTYICNVNHKPSNTKVDKKVEPKSCDKTHTCPPCPAPELLGGPDVFLFPPKPKDTLMISRTPEVTCVVVDVSHEDPEVKFNWYVDGVEVHNAKTKPREEQYNSTYRVVSVLTVLHQDWLNGKEYKCKVSNKALPLPEEKTISKAKGQPREPQVYTLPPSRKELTKNQVSLTCLVKGFYPSDIAVEWESNGQPENNYKTTPPVLDSDGSFFLYSKLTVDKSRWQQGNVFSCSVMHEALHNRYTQKSLSLSP
heavy 2: QVQLVQSGAEVKKPGASVTVSCKASGYTFTDYEMHWIRQPPGEGLEWIGAIDPKTGDTAYSESFQDRVTLTADKSTSTAYMELSSLTSEDTAVYYCTRFYSYTYWGQGTLVTVSSASTKGPSVFPLAPSSKSTSGGTAALGCLVKDYFPEPVTVSWNSGALTSGVHTFPAVLQSSGLYSLSSVVTVPSSSLGTQTYICNVNHKPSNTKVDKKVEPKSCDKTHTCPPCPAPELLGGPDVFLFPPKPKDTLMISRTPEVTCVVVDVSHEDPEVKFNWYVDGVEVHNAKTKPREEQYNSTYRVVSVLTVLHQDWLNGKEYKCKVSNKALPLPEEKTISKAKGQPREPQVYTLPPSRDELTKNQVSLTCLVKGFYPSDIAVEWESNGQPENNYKTTPPVLDSDGSFFLYSKLTVDKSRWQQGNVFSCSVMHEALHNHYTQESLSLSP
light: DIVMTQSPLSLPVTPGEPASISCQASESLVHSNRNTYLHWYLQKPGQSPQLLIYKVSNRFSGVPDRFSGSGSGTDFTLKISRVEAEDVGVYYCSQNTHVPPTFGQGTKVEIERTVAAPSVFIFPPSDEQLKSGTASVVCLLNNFYPREAKVQWKVDNALQSGNSQESVTEQDSKDSTYSLSSTLTLSKADYEKHKVYACEVTHQGLSSPVTKSFNRGEC
notes: Anti-glypican-3 IgG1; also called A57/B78

In this assay the target is T1, FcγRIIIa F extracellular domain with C-terminal His tag (human, UniProt P08637 17-208).
T1 construct: extracellular domain; Soluble receptor, F158 allotype; also called FcgRIIIa F; FcgRIIIaF; not shown: His tag at the C terminus
T1 sequence (P08637 17-208): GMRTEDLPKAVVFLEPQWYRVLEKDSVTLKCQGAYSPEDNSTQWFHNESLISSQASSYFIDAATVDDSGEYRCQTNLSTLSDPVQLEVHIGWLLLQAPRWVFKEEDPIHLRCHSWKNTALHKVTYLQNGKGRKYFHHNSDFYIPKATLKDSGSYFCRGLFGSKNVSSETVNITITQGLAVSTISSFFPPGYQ
The experiment in a line: SPR (Biacore); KD for FcγRIIb divided by KD for FcγRIIIa F. Here is the method:
The prepared antibodies were assayed as to the KDs for FcγRIIIa and FcγRIIb according to the method described in Reference Example 2.
Analysis of interaction between objective antibody and the FcγR was carried out using Biacore T100 (GE Healthcare). HBS-EP+ (GE Healthcare) was used as the running buffer, and the measurement temperature was set to 25° C. Chips produced by immobilizing the antigen peptide by the amine coupling method to a Series S Sencor Chip CM5 (GE Healthcare), or alternatively, chips produced by allowing preliminarily biotinylated antigen peptides to interact with and immobilize onto a Series S Sensor Chip SA (certified) (GE Healthcare) were used. Antibodies of interest were captured onto an antigen peptide-immobilized chip, and allowed to interact to each FcγR diluted with running buffer. To regenerate and repeatedly use the chip, the antibodies captured on the chip were washed off by reacting 10 mM glycine-HCl, pH 1.5.
In general terms: In SPR one partner is held on a chip, and binding of the other changes the refractive index at the surface.
Regarding B1, the “FcγRIIIa F/FcγRIIb ratio” value was 7.9.

As to B2, the “FcγRIIIa F/FcγRIIb ratio” value is 5.3.

Regarding B3, the “FcγRIIIa F/FcγRIIb ratio” value turned out to be 244. For B4, the “FcγRIIIa F/FcγRIIb ratio” value is 14. Take B5: the “FcγRIIIa F/FcγRIIb ratio” value was found to be 100.
